Results taken from paper PMC3379994 (2012).

B1: SH3 domain #3 from Intersectin 2, displayed on M13 phage (domain or fragment)
chain: SVGEEYIALYPYSSVEPGDLTFTEGEEILVTQKDGEWWTGSIGDRSGIFPSNYVKPKDQ
B2: SH3 domain from Hck, displayed on M13 phage (domain or fragment)
chain: not shown
B3: SH3 domain from Yes, displayed on M13 phage (domain or fragment)
chain: not shown
B4: SH3 domain from Fyn, displayed on M13 phage (domain or fragment)
chain: not shown
B5: SH3 domain from Osteoclast stimulating factor 1, displayed on M13 phage (domain or fragment)
chain: GQVKVFRALYTFEPRTPDELYFEEGDIIYITDMSDTNWWKGTSKGRTGLIPSNYVAEQAE
B6: SH3 domain from p85α, displayed on M13 phage (domain or fragment)
chain: AEGYQYRALYDYKKEREEDIDLHLGDILTVNKGSLVALGFSDGQEARPEEIGWLNGYNETTGERGDFPGTYVEYIGR
B7: SH3 domain #2 from Nck1, displayed on M13 phage (domain or fragment)
chain: DLNMPAYVKFNYMAEREDELSLIKGTKVIVMEKCSDGWWRGSYNGQVGWFPSNYVTEEGD
B8: SH3 domain from Lyn, displayed on M13 phage (domain or fragment)
chain: EQGDIVVALYPYDGIHPDDLSFKKGEKMKVLEEHGEWWKAKSLLTKKEGFIPSNYVAKLNT

Molecular target: His-tagged Sam68 (Src-associated in mitosis, 68 kDa) (human (cDNA from HEK293T cells), UniProt Q07666 1-443)
Sequence (Q07666 whole entry): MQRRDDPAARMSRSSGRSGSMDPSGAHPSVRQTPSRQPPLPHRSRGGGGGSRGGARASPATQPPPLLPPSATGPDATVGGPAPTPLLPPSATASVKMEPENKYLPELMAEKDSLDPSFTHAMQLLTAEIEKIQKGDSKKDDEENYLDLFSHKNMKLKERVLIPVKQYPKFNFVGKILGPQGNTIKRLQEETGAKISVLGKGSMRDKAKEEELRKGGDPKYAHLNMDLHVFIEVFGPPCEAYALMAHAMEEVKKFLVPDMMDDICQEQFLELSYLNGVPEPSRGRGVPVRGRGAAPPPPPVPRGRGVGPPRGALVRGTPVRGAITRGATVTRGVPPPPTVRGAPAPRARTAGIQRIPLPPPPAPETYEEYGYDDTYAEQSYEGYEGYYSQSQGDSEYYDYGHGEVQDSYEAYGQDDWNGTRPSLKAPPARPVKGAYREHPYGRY
Experiment: ELISA

| Binder | Kd [nM] |
| --- | --- |
| B1 | 59 |
| B2 | 31 |
| B3 | 5.5 |
| B4 | 41 |
| B5 | 22 |
| B6 | 13 |
| B7 | 31 |
| B8 | 7.9 |
